{"source": "paper PMC12018839", "binders": {"B1": {"name": "PIL15 EMSA probe (AMT1;2 promoter PBE-box) (dsDNA)", "DNA 1": "AGGATTTCATGTGTTTTGGT", "DNA 2": "ACCAAAACACATGAAATCCT"}}, "biological_target": "T1, GST-PIL15 (Oryza sativa (rice), UniProt Q0JNI9 1-637)", "T1 sequence": "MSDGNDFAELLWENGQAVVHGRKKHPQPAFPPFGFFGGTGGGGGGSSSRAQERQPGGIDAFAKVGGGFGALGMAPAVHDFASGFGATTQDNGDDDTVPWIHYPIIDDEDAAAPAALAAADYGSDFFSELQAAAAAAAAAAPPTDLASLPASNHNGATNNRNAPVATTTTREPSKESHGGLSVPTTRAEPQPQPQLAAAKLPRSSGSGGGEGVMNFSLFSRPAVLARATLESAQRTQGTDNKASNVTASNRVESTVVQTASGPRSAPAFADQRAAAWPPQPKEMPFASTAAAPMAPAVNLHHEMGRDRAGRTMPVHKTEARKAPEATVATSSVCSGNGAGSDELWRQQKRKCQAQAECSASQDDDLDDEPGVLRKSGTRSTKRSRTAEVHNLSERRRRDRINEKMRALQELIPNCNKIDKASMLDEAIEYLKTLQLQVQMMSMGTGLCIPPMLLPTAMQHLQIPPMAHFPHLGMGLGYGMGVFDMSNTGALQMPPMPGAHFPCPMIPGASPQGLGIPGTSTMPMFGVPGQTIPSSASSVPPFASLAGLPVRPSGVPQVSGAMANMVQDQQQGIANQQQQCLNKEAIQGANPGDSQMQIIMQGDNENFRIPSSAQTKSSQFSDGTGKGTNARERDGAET", "experiment": "EMSA"}
{"binder": "B1", "values": [{"measurement": "binding result", "value": "binds"}]}
